Tested on: His6ZQGRep4CT

## Protease 3C
  Protease 3C cleavage of a Z-Rep4CT fiber (SDS-PAGE of the cleavage supernatant): the Protease 3C cleavage site is available for cleavage in Z-Rep4CT fibers and therefore, the HZ part can be removed

Reference: US20130316376
